Test results: PMC11363328

Target: DDX3X (UniProt O00571)
Experiment: fluorescence polarization, protein titration
Settings: FP: 14.4 mM HEPES-KOH pH 8, 108 mM NaCl, 1 mM MgCl2, 14.4% glycerol, 0.1% DMSO, 2 mM DTT, 1 mM ATP, 10 nM probe, room temperature, 10 min

DDX3X, sequence (O00571 132-607): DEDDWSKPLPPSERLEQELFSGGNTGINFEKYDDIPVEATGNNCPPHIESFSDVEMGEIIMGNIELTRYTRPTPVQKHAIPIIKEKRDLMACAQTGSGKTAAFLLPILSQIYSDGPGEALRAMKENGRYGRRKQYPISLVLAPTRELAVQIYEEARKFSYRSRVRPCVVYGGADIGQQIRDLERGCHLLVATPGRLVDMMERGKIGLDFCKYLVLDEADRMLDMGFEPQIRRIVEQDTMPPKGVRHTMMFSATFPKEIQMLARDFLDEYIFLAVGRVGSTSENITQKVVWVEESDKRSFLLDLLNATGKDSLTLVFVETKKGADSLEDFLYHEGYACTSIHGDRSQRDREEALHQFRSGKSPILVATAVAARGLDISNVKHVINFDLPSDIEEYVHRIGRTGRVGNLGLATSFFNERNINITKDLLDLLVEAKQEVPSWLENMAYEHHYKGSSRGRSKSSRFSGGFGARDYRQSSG

AGAGAGAGAGAGAGAG [FAM-r(AG)8]
K half: 2800 nM
